# Experimental data taken from the supplement of paper PMC10724198.
# ± gives the standard deviation of the averaged measurements.
# System: Saccharomyces cerevisiae
# Experiment: protein stability index of tFT-peptide fusion (C-terminal peptide) (PSI (0-1 scale)); higher = more stable (slower turnover)
# Conditions: genetic background: wild type; temperature: 30 C
# 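Also: PSI is a weighted mean of sequencing reads over stability bins, variants kept only with over 10 reads, mCherry proximal and sfGFP distal, peptide attached via GGGS linker.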
row,Sequence,protein stability index
1,RVGHGHRSPTRV,0.677 ± 0.14
2,RVGRGGGRETRG,0.699 ± 0.031
3,RVGRNLRVGGES,0.69 ± 0.008
4,RVGTHDRTRAHG,0.601 ± 0.02
5,RVGVRGVVVSMG,0.612 ± 0.075
6,RVLGGGVLGVLV,0.711 ± 0.0099
7,RVLLYWRGSGVL,0.577 ± 0.071
8,RVLSCAFSTLWA,0.711 ± 0.12
9,RVMGRHIGRPRE,0.702 ± 0.015
10,RVPDNYLKWSYI,0.719 ± 0.051
11,RVRFRVYKGGAL,0.661 ± 0.041
12,RVRGDRLGGRGT,0.706 ± 0.043
13,RVRGGGPRESGQ,0.728 ± 0.024
14,RVSAPPSFHGSF,0.722 ± 0.014
15,RVSGYTHPLLSC,0.679 ± 0.079
16,RVSLREVKAEKN,0.682 ± 0.057
17,RVTVWHELTVDC,0.569 ± 0.0083
18,RVVGGGGEAWRE,0.73 ± 0.033
19,RVWAGGGGGDGC,0.691 ± 0.021
20,RVYTSAWAPDWR,0.62 ± 0.056
21,RWCRLGHRWRVV,0.563 ± 0.054
22,RWFTFPVPVPFC,0.642 ± 0.036
23,RWGGGKWWRGAE,0.659 ± 0.018

row,Sequence,protein stability index
1,RWSVLSRSCSSY,0.729 ± 0.034
2,RWTRFISLTGTG,0.637 ± 0.064
3,RWVEGVWGVWCG,0.757 ± 0.042
4,RYCESKVFKERE,0.742 ± 0.049
5,RYFPNRGSGLTY,0.786 ± 0.037
6,RYIKSRMLIIER,0.56 ± 0.049
7,RYLVLPDLCPIS,0.736 ± 0.1
8,RYPPVQPRRAQR,0.593 ± 0.031
9,RYRSRHHSTYVL,0.635 ± 0.26
10,RYSRVALRPRPP,0.579 ± 0.052
11,RYTKYKSYPYDI,0.6897 ± 0.0023
12,SACPPIPPPPPP,0.635 ± 0.026
13,SAGGCSVMAGNG,0.709 ± 0.11
14,SAGVIVPGRAGR,0.761 ± 0.082
15,SAHPFKSCPIGR,0.682 ± 0.0094
16,SAKGGVLLIGLF,0.603 ± 0.2
17,SALRGTDMREEV,0.632 ± 0.023
18,SAPFGFLFFARL,0.815 ± 0.083
19,SAPLRHTSSSPS,0.697 ± 0.043
20,SAPPSPPLPPPC,0.677 ± 0.067
21,SAPRDLYIHFSR,0.7371 ± 0.0014
22,SARGRTRTADPS,0.677 ± 0.048
23,SARRFPPPPSSS,0.702 ± 0.046

row,Sequence,protein stability index
1,SASSESTFLRAR,0.641 ± 0.012
2,SATALTANHPKM,0.677 ± 0.0096
3,SCITFGGWLGGM,0.709 ± 0.13
4,SCLCIHEIFLRL,0.672 ± 0.016
5,SCLWRGHDTVWL,0.662 ± 0.098
6,SCSFLISLLLLP,0.525 ± 0.023
7,SCTGGLVSVRGV,0.666 ± 0.023
8,SCVNGYSVCMCW,0.524 ± 0.046
9,SCWVLPFHYGSG,0.714 ± 0.026
10,SDDTIQNQICPG,0.66 ± 0.059
11,SDIHSSMTSGSF,0.669 ± 0.014
12,SDLKARYHCGRD,0.652 ± 0.075
13,SDPASVIPMELE,0.673 ± 0.052
14,SDRLLYLGNYDV,0.773 ± 0.0011
15,SDTPTHVLGPPY,0.716 ± 0.038
16,SEKKKKNKKNKK,0.714 ± 0.2
17,SELTCSSINSAT,0.673 ± 0.024
18,SENVSATLNNQD,0.708 ± 0.028
19,SEPCSASLSVSL,0.64 ± 0.045
20,SEPPFSFLNVSP,0.676 ± 0.018
21,SEVPCENSRRVV,0.667 ± 0.08
22,SFFFFSPFSRLS,0.693 ± 0.032
23,SFFFLVPFSVFL,0.586 ± 0.1

row,Sequence,protein stability index
1,SFFLMTPPPSLR,0.698 ± 0.12
2,SFGLAPLSSFFC,0.705 ± 0.078
3,SFGLSYYFRNSL,0.731 ± 0.066
4,SFLHSRAELPAG,0.604 ± 0.065
5,SFLIADLPSTPP,0.763 ± 0.13
6,SFLSPPSPPHSP,0.639 ± 0.01
7,SFPLPPLSPPSR,0.73 ± 0.048
8,SFPPPFLISLSP,0.676 ± 0.042
9,SFPPPHPPPPLP,0.6998 ± 0.0045
10,SFPPSPLPPPPR,0.586 ± 0.018
11,SFRVLCHGAQLL,0.634 ± 0.065
12,SFSRFFAIRPSF,0.723 ± 0.091
13,SFTSGFTDAGNI,0.6008 ± 0.0047
14,SFYSAALSCVFI,0.737 ± 0.15
15,SGACRLEESGKV,0.755 ± 0.061
16,SGGCDNGRMRWV,0.682 ± 0.07
17,SGGGGVLGWRGG,0.682 ± 0.022
18,SGGGVGGQVAVG,0.715 ± 0.087
19,SGGPDCLSMSGL,0.694 ± 0.025
20,SGGRSPYLLVGL,0.725 ± 0.053
21,SGGRVSGLVGEE,0.673 ± 0.031
22,SGGSALGCGRAA,0.658 ± 0.063
23,SGGVWWGRGRVS,0.727 ± 0.058

row,Sequence,protein stability index
1,SGGWGGGDCVGA,0.69 ± 0.014
2,SGGWLAACYAVY,0.668 ± 0.032
3,SGKFVGCSFWMG,0.62 ± 0.016
4,SGLGRPHLRCLD,0.672 ± 0.042
5,SGLPPYTPPLSF,0.80558 ± 0.00056
6,SGLRFLSWSVHV,0.6114 ± 0.0051
7,SGLSPPSRVCGY,0.651 ± 0.068
8,SGLWAGVDGRSS,0.6855 ± 0.0021
9,SGMGAIADENKE,0.635 ± 0.051
10,SGNDIQSLNIVI,0.754 ± 0.081
11,SGPSWSGGGWGR,0.648 ± 0.021
12,SGRSRVAGVERR,0.708 ± 0.062
13,SGSITAGLVRNV,0.6152 ± 0.0051
14,SGSSRLRTSPTG,0.814 ± 0.056
15,SGTGRINWEGFL,0.709 ± 0.03
16,SGVLRLSGTGAV,0.688 ± 0.0018
17,SGVSCPGRVDGG,0.68 ± 0.0085
18,SGVSRSGREFRN,0.634 ± 0.088
19,SGWRGVVGRGGR,0.625 ± 0.027
20,SHDLASRQSAFR,0.648 ± 0.059
21,SHFHSRDARRSP,0.673 ± 0.0068
22,SHKPDLTNVRFV,0.707 ± 0.044
23,SHLAHLHPHIAR,0.675 ± 0.026

row,Sequence,protein stability index
1,SHLGTITPSSLL,0.662 ± 0.082
2,SHPWLLDCVTTF,0.706 ± 0.044
3,SHRSALLPFLPP,0.646 ± 0.046
4,SHSPAPSFPYFP,0.7367 ± 0.0026
5,SHSRRRTPSVTP,0.713 ± 0.083
6,SHTRPRPPLHLP,0.68 ± 0.038
7,SIDKINKLTPDV,0.648 ± 0.052
8,SIIATHNNNSIW,0.694 ± 0.014
9,SILRRFSPPPLL,0.75 ± 0.051
10,SISLVLPASCIT,0.693 ± 0.021
11,SISQSSSLGLED,0.677 ± 0.046
12,SISSFLPRRLPF,0.662 ± 0.033
13,SIVRWLTSSLIH,0.787 ± 0.17
14,SIVSTPGATACL,0.67281 ± 0.00029
15,SIYLLQRRQFDP,0.677 ± 0.048
16,SKGSVFGNMGYR,0.6741 ± 0.0063
17,SKIQDHLNTAPE,0.654 ± 0.058
18,SKKLSMNIIITN,0.653 ± 0.0047
19,SKKRHSKNRKSV,0.71 ± 0.032
20,SKNEIKNYNTKI,0.642 ± 0.031
21,SKNQEDEYTIHE,0.7 ± 0.024
22,SKNQQKKCQMIT,0.534 ± 0.038
23,SKRIKIEFYVNQ,0.688 ± 0.12

row,Sequence,protein stability index
1,SKSLRAAQGGRT,0.684 ± 0.016
2,SKYVVQSENITG,0.699 ± 0.015
3,SLALPLLPPSSP,0.739 ± 0.05
4,SLALSPQFLSFP,0.749 ± 0.081
5,SLAPSARLYPYH,0.768 ± 0.03
6,SLARGFVVPMWP,0.707 ± 0.045
7,SLCPVTPPSVGF,0.656 ± 0.02
8,SLDFRSARFSLG,0.65 ± 0.014
9,SLDQGRLRRLVG,0.641 ± 0.061
10,SLEALARDRFCT,0.724 ± 0.014
11,SLESRGLRSRHY,0.633 ± 0.073
12,SLFLLFRSRACS,0.539 ± 0.011
13,SLFMRLPLQSSF,0.65 ± 0.041
14,SLGFMALFYLPL,0.649 ± 0.016
15,SLGWVRDRICSD,0.75 ± 0.17
16,SLISRAFYSFSP,0.699 ± 0.04
17,SLLFPPSPPPPA,0.673 ± 0.011
18,SLLLFPCPWFGL,0.677 ± 0.019
19,SLLLPPRPPPRV,0.744 ± 0.055
20,SLLPPSPPPSRL,0.724 ± 0.066
21,SLLPSSFRAPAP,0.652 ± 0.045
22,SLLQSLPSPPPP,0.639 ± 0.011
